Laboratory results reported in the supplement of paper PMC12764529.
± gives the half width of the 95% confidence interval.

Test: folding stability dG unfold (combined trypsin and chymotrypsin); higher = more stable
Procedure, shortened: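 Unfolding free energy was derived, per protease or combined, against a sequence-predicted unfolded-state K50 and a shared folded-state K50, starting from K50 inferred by Bayesian fitting of sequencing counts. Digestion with trypsin and chymotrypsin was carried out on designed mini-proteins under 80 residues without cysteine in a PA-tagged cDNA display construct. Only designs with AlphaFold2 dimer inter-PAE above 15 were kept.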

First: SAGGNWRPVERPIPIEPGMPPEEFIDEIADELPPGWRIDKPEPHPDNNYFKITVYDPNDGNQVEILFSAGGS [r16_250_TrROS]
Second: SAGWRRIPPGRPIRIRLKGNGEEITIPIPEGAEVEPDPDNNNVMIWFREDGKEWSMNFKNGRIDDIEPVSAG [r5_22_TrROS]
The “folding stability dG unfold” value of the first is higher: 0.122 ± 0.25 kcal/mol for the first, under -1 kcal/mol for the second.

Going from “SAGGSAGGAVPSYIKDIETIPETSALIVNAESEEIVKEFLEKLGLKIESKEVDEDKIILPAKIESAGGSAGG [r6_381_JUSTAS]” to “SKVLELLKELAKKLGATITEVKVEKLEDGTVKVTATITVTYLDKNGKPVKTETLTLTITVKNGKITEIKLSA [r9_519_TrROS_Hall]”, the “folding stability dG unfold” value rises from 0.0269 ± 0.35 kcal/mol to over 6 kcal/mol.

“SMKIKITAKTEEEREKAKKLLEEIAKELNIEIKIEKIEVIPKPKPEKVELSEEEKKKLKELEEEGLIEEESA [r9_472_TrROS_Hall]” and “SAGGSAGGSAGGLEVSIPGWTVTKTEPLPDDSVLSTATKKNGPKFLISISPDEVTISPESAGGSAGGSAGGS [r10_312_JUSTAS]” cannot be ordered by “folding stability dG unfold” value: under -1 kcal/mol for the first, under -1 kcal/mol for the second.

“SAGGSAGGSMYRYTVTFPNTGTVLEKEFESLEEAKKYIPKDRPIKEIKVEPVEPPVSPEVLLVSAGGSAGGS [r12_851_JUSTAS]” and “SAGGSAPGKKTIKIEIIFPFPEEQAKEFADYIAKGIADETGHDPENIDIKVEVHVFDPANNEPRPFSAGGSA [r15_918_TrROS]” are within error of each other in “folding stability dG unfold” value: -0.651 ± 0.26 kcal/mol for the first, -0.511 ± 0.25 kcal/mol for the second.

Going from “SAGGSAGGSAGGHPVRVRITWPDGQQRTIPIPVDPENGQVTLEEIAKTISPEHGWKIEVFSAGGSAGGSAGG [r7_492_TrROS]” to “SAGGSAGGSAGTKEYEVKVGDKIVRISETPDSRVIDYPETDFKKEFSSDFPGKPIAEYLASAGGSAGGSAGG [r11_648_TrMRF]”, the “folding stability dG unfold” value falls from -0.638 ± 0.51 kcal/mol to under -1 kcal/mol.

“SAGGSAGGSAGGTKVIPFDSVEEILEEVKKDPNKPRYIRMPGAWIKINKPGDITEIEPWPSAGGSAGGSAGG [r7_532_TrROS]” and “SDILERAAEKGVDEIHIMLQPNQIELIKRLQDRGAKIEIHFPPGVPKEYLKKLPGFKVDKVEWMPPDDMPSA [r9_671_TrROS]” cannot be ordered by “folding stability dG unfold” value: under -1 kcal/mol for the first, under -1 kcal/mol for the second.

“SAGGSAGGSPVTVETSSQTSTVPLPTGPTVTLVTNTTTTTRPVPLSTPRSSSTTTVTTTVTVVSSAGGSAGG [r6_224_JUSTAS]” and “SAGGSAGGSASVSSPERFTVPRPDGTPVEVTLVEPEKGYYEVTDPATGERTRLPIEDIPPVSAGGSAGGSAG [r3_213_JUSTAS]” cannot be ordered by “folding stability dG unfold” value: under -1 kcal/mol for the first, under -1 kcal/mol for the second.

Going from “SAGGSAMIKTYEEEVELTVPGGSTPVKVRVKTIEKIEKDEKGNLKTEVVEVKIETPENAPAVALLLSAGGSA [r15_258_JUSTAS]” to “SAGGSAGGPVTVVPVVTPADVPVLTTPGGAPARPASRPDLVRPVASTVTVTITPAPAAPTVTVLSAGGSAGG [r6_537_JUSTAS]”, the “folding stability dG unfold” value rises from -0.857 ± 0.51 kcal/mol to 0.135 ± 0.12 kcal/mol.

Compared with “SKITITIEEEEVEVNGKKYKVFKVTATVTVTEYKFKDGKLVEKKTKTKTITVRIVLDKNGKIVKIEPLPDSA [r9_829_TrROS_Hall]”, “SAGGSAGGSAGGPKFKFEDVMVQRNPEPERAYVPITYEDPGKERPIMIPIPPNQTLDEISAGGSAGGSAGGS [r10_304_TrROS]” is lower in “folding stability dG unfold” value: over 6 kcal/mol for the first, under -1 kcal/mol for the second.

Compared with “SAGGSAGGSAGGGPSVAPFEVTELLSVSYVPGPRRFVAVVRLPDPERLVVVPVEDLPPGQSAGGSAGGSAGG [r7_304_TrMRF]”, “SAGGSAGGSAGMPLPIKTLTEVSTVEGVGITLTALDNGLVIVEKSDGKVTVIPLSAYEAQSAGGSAGGSAGG [r11_254_JUSTAS]” is higher in “folding stability dG unfold” value: under -1 kcal/mol for the first, -0.0335 ± 0.073 kcal/mol for the second.

Compared with “SAGGSMTLTEVSYEGDKVVTTTTTFTPGAPALTSSTTTTPIPPVPLGPRPVIFFEPVSEMRPLALVSAGGSA [r2_332_JUSTAS]”, “SAGGSAEEKAKAIKEELEKKGEVKKVTVTIEPTPENSTKVTVEIEKEPKPKPKEYKYTELPNGKKVILSAGG [r13_957_JUSTAS]” is lower in “folding stability dG unfold” value: 0.034 ± 0.17 kcal/mol for the first, under -1 kcal/mol for the second.

Going from “SAGKFKITSIKPLYVTTPADAPPVKKPYLVIELDAEDPEKARELAEKLTGAPVLVVEDPETGTATIVIDSAG [r5_907_TrMRF]” to “SAGGSAGGSIEIDHDRDPGTNRYTATVEIPDPDGKGLEVEVQMNGDPEDAAKTAAKTVLEEFNSAGGSAGGS [r20_33_TrROS]”, the “folding stability dG unfold” value falls from -0.357 ± 0.17 kcal/mol to under -1 kcal/mol.

First: SKMKIKIEITEVYPEGKTIVVKAEIEIDGKTIEMEMTIKLPNGEEYRIRMRFVRRKDGRLEMEIEVEKLPSA [r9_255_TrROS_Hall]
Second: SAGGSAGGSAGGGMTTVTIEVPPELSEEEVRRAAAELVAAGRPVPVTVERLPEDRVVVVTSAGGSAGGSAGG [r7_283_JUSTAS]
The “folding stability dG unfold” value of the first is higher: over 6 kcal/mol for the first, -0.0348 ± 0.082 kcal/mol for the second.

“SAGGSAGGPPDDVEPEEFTFRFGDKPIKVEILRVNPDNNNIMIKHESNGKPKTMMFPPEDLEKLSAGGSAGG [r6_421_TrROS]” and “SAGGSAGGSASLPEKLAQEAKEKILKENPDVEVTEIVVTKLPPEKYTVTIKTPDGKTETIPLSAGGSAGGSA [r18_423_JUSTAS]” are within error of each other in “folding stability dG unfold” value: -0.0461 ± 0.25 kcal/mol for the first, -0.308 ± 0.1 kcal/mol for the second.

“SDVNIKPEKVDPNGIFTVEIPVDNNNVDKLREIINEIFPNFEPTEVKPNPESGYHEIIMRVPDGKAFEFSSA [r9_1164_TrROS]” and “SAGGSAGGSAGGSSVPADTVVELEFKDEKGEPLLITVRVTTKDSGVDRTVLEVRPPELLSAGGSAGGSAGGS [r10_744_JUSTAS]” are within error of each other in “folding stability dG unfold” value: -0.55 ± 0.14 kcal/mol for the first, -0.424 ± 0.17 kcal/mol for the second.

First: SAGGGKIVFTEGYLLAEFPPTDLRVARPIPPDRPELALEEVADAFIAEMEAEFGFPPPEDVRVEVLASAGGS [r8_402_TrMRF]
Second: SAGGSAGGSMSTSESVTVTFPDGSVRKATILKQEKLPNGTVPVEIVDEGGTSVGTRNWTVTAESAGGSAGGS [r12_735_JUSTAS]
The “folding stability dG unfold” value of the first is higher: -0.0645 ± 0.2 kcal/mol for the first, under -1 kcal/mol for the second.

Going from “SAGGWRLNINFPPDNIEKIVEKLRDEFPGWEIKPDKIEYNPDDGQYTIPIEVKSKNPRAAEKIQDAIQSAGG [r13_539_TrROS]” to “SAGGSAGGSAGMSPNIVSYETVESDKNGNIIKKTTYLYSDNTIITETFSPKKKKKIQTFSKESAGGSAGGSA [r18_302_JUSTAS]”, the “folding stability dG unfold” value falls from -0.955 ± 0.39 kcal/mol to under -1 kcal/mol.

Going from “SAGGSAGGSMRFVTIKVPGPDTTFTFDTDGDEALEAKLAELEKKHPEIKKENIEKLEVNPGPGSAGGSAGGS [r12_852_JUSTAS]” to “SAGGSAGGSAGGSSSLPLSTGTIPLEELEAQGGPIVEVTVLLFSGSSNRTIVMDLPPELVSAGGSAGGSAGG [r7_116_JUSTAS]”, the “folding stability dG unfold” value rises from under -1 kcal/mol to -0.596 ± 0.31 kcal/mol.

First: SAGMYTVLETRTVNGRTVTLIDVPERPLTVTVTVDRDPSGRRTVTVNVEGEVKEILEKANPDIDELTLESAG [r5_933_JUSTAS]
Second: SAGGSAGGSVEIKSITTVTDPNSSANPTTITVKRDPAKGVLGEEVKAIAKALEEAGYPTTFGTSAGGSAGGS [r12_172_JUSTAS]
The “folding stability dG unfold” value of the first is higher: -0.15 ± 0.2 kcal/mol for the first, under -1 kcal/mol for the second.

“SAGGSAGGSAGGSQELTIKIPPGEPDVRIFFPDGGEEHEIPPGDEREIELSPDKIAVQPSAGGSAGGSAGGS [r10_46_TrROS]” and “SAGGSAGGSAGPVISKSEVESTEIIFSYNNKHEITVKKVKKTITTTIPPVKLKPDGTPILSAGGSAGGSAGG [r11_558_JUSTAS]” are within error of each other in “folding stability dG unfold” value: -0.148 ± 0.25 kcal/mol for the first, -0.349 ± 0.54 kcal/mol for the second.

Compared with “SAGGSAGGSMMKVRVYARNKDGEEVPVEEIEIPPEVETPEEALKLAEELAKKEGVEEVRVEIESAGGSAGGS [r12_569_TrROS_Hall]”, “SAGGSAGGSAGSKEKLEEEAKAKGRPVTPLPDGTLKVETVDPNKGTASTTVIDPETAEKLSAGGSAGGSAGG [r11_994_JUSTAS]” is lower in “folding stability dG unfold” value: -0.609 ± 0.38 kcal/mol for the first, under -1 kcal/mol for the second.

Compared with “SAGGSAGGSAGMKPGQEVRVEVPVPNNGKKIKIPVYVPPGYTPKQAKNMAIMMAKMIREMSAGGSAGGSAGG [r11_355_TrROS]”, “SAGGSAGGSAGGKKVKIKIEIPGMSKEEIEKLAKELEKKGIKVEKIEVKPLPKVEVFEKKSAGGSAGGSAGG [r7_906_TrROS_Hall]” is lower in “folding stability dG unfold” value: 0.0699 ± 0.096 kcal/mol for the first, under -1 kcal/mol for the second.

Going from “SAGGSAGGSMDPGQPMEFIQIYPDPDGNLEIHVSEIRIDPDGGAKVTEVEPKRIDDAEDLAKFSAGGSAGGS [r12_386_TrROS]” to “SAGGSAGGSSPEIPLPPEIAEEIEVPGSGTTVLLHPSTGLVLYKPPPEELAVGRYDPSTGVLESAGGSAGGS [r12_420_JUSTAS]”, the “folding stability dG unfold” value rises from under -1 kcal/mol to 0.475 ± 0.15 kcal/mol.

With “SAGGSASMITSTLTDPSTGTSSTLPTEVLQKLLDENPPDSNLVLPTGPKPVTVKVEPEKGLATFTGSAGGSA [r15_350_JUSTAS]” the “folding stability dG unfold” value was -0.989 ± 0.29 kcal/mol.
